Residue numbers refer to the chain shown, from its start.

The values that follow come from patent publication US20220306705A1.

Holding throughout (assay): cell-based or functional assay
For experiment [1], the target named is T1, Factor G β-subunit βi3 (Limulus polyphemus).
T1 sequence: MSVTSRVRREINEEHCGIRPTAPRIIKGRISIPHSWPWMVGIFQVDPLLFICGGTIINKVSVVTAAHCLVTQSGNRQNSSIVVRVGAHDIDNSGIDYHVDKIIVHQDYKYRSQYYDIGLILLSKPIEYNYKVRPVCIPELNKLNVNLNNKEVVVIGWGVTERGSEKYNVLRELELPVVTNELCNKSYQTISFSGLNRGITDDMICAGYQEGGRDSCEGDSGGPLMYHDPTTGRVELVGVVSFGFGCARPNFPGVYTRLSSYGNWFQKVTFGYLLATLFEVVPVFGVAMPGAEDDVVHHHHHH

Experiment [2] deals with T2, Factor G β-subunit β2 (Limulus polyphemus).
T2 sequence: T1 sequence with S79Y, Y167H, R233G

Experiment [3] addresses T3, Factor G β-subunit βi2 (Limulus polyphemus).
T3 sequence: T1 sequence with P125R, Y167H

Experiment [4] concerns the target T4, Factor G β-subunit β5 (Limulus polyphemus).
T4 sequence: T1 sequence with S79Y

Experiment [5] concerns the target T5, Factor G β-subunit βC1 (Limulus polyphemus).
T5 sequence: T1 sequence with P125R

Experiment [6] addresses T6, Factor G β-subunit βC2 (Limulus polyphemus).
T6 sequence: T1 sequence with S79Y, Y167H

The target of experiment [7] is T7, Tachypleus Factor G β-subunit (Tachypleus (paragraph 383 prints 'Tachypleus polyphemus'; paragraph 8 prints Tachypleus tridentatus)) (UniProt Q27083).
T7 sequence (looked up): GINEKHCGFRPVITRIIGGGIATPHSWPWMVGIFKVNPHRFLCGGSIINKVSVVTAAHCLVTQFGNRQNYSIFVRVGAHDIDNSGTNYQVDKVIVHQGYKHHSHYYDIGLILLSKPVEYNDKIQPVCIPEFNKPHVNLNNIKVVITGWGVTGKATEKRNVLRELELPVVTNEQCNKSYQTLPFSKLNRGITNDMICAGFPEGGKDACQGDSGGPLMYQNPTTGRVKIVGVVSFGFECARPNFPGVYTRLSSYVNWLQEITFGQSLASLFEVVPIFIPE

B1: Factor G α-subunit (AB547712) derived from Limulus polyphemus (protein)
chain: SQEPKWKLVWSDEFTNGISSDWEFETGNGPNGWGNNELQYYRRENTRVEGGKLIITAKEEDYEGFRYTSAKLKTQFNKPWKDGKIEARMSIPSFRGVWVAFWMLGDITDTDSWPSSGEIDFEEHINTNNEVRGTIHWSTSDDADTLHGRGTNTDYHIYSVEWNSSVIRWFVDGNQYFDVNIQRGATGTNAFHNNVFVILNMAIGGNWPGFNVADEAFPANMYVDYVRVYQDANTPSPVDVTHLSGYYFLQNRHSELYLDVSGSSNEDGAFLQQWPYSGNANQQFDFVHLGNKVYKIINKNSGKSLDVYELGTDNGVRIQQWSYGGGYNQQFIVQDVGDGYYKIFARSTGKLVEVADLNKDPGGKIQQWSDDGQLSGQWKLIRNKANSKLIQAESYFASSKVQLEDTSDVGGGKNVKCDNEGAWMAYKDINFPSSGTYQVEYRVASERAGGMLSLDLNAGSIVLGMLNVPSTGGLQKWTTISHTVNVSSGTYNLGISVQRPGWNINWINITKVSSQLKSIPSTNSRVIQAESYFDSSKVQLEDTSDVGGGKNVKCDTKGAWMAYKDINFPSSGSYQIEYRVASERAGGKLSLDLNAGSIVLGMLDVPSTGGWQKWTTISHTVKVDSGTYNLGIYVQQPGWNINWIKITKV
Take B1: the glucan-dependent protease activity of the coexpressed product: blank difference in absorbance (405 nm / 492 nm) with vs without LNT; grade A >0.1, B <=0.1 and >0.01, C <=0.01 and >0, D =0 (absorbance difference) in experiment [1], in experiment [2], in experiment [3], in experiment [4], in experiment [5] and in experiment [6] was 0 throughout.

B2: Factor G α-subunit A (protein)
chain: EPKWKLVWSDEFTNGISSDWEFETGNGPNGWGNNELQYYRRENTRVEGGKLIITAKEEDYEGFRYTSAKLKTQFNKPWKDGKIEARMSIPSFRGVWVAFWMLGDITDTDSWPSSGEIDFEEHINTNNEVRGTIHWSTSDDADTLHGRGTNTDYHIYSVEWNSSVIRWFVDGNQYFEVNIQRGATGTNAFHNNVFVILNMAIGGNWPGFNVADEAFPANMYVDYVRVYQDANTPSPVDVTHLSGYYFLQNRHSELYLDVSGSSNEDGAFLQQWPYSGNANQQFDFVHLGNKVYKIINKNSGKSLDVYELGTDNGVRIQQWSYGGGYNQQFIVQDVGDGYYKIFARSTGKLVEVADLNKDPGGKIQQWSDDGQLSGQWKLIRNKANSKLIQAESYFASSKVQLEDTSDVGGGKNVKCDNEGAWMAYKDINFPSSGTYQVEYRVASERAGGMLSLDLNAGSIVLGMLNVPSTGGLQKWTTISHTVNVSSGTYNLGISVQRPGWNINWINITKVSSQLKSIPSTNSRVIQAESYFDSSKVQLEDTSDVGGGKNVKCDTKGAWMAYKDINFPSSGSYQIEYRVASERAGGKLSLDLNAGSIVLGMLDVPSTGGWQKWTTISHTVKVDSGTYNLGIYVQQPGWNINWIKITKV
As for B2, the glucan-dependent protease activity of the coexpressed product: blank difference in absorbance (405 nm / 492 nm) with vs without LNT; grade A >0.1, B <=0.1 and >0.01, C <=0.01 and >0, D =0 (absorbance difference) in experiment [1] is 0.1; in experiment [2] it was less than 0.01; in experiment [3], 0.1; in experiment [4] it was less than 0.1; in experiment [5], less than 0.1; in experiment [6] it was less than 0.01.

B3: Factor G α-subunit B (protein)
chain: TNWKLVWSDEFTNGISSDWEFETGNGPNGWGNNELQYYRRENARVEGGKLIITAKKEDYEGFRYTSAKLKTQFNKPWKDGKIEARMSIPSFRGVWVAFWMLGDITDTDSWPSSGEIDFKEHINTNNEVRGTIHWSTSDGAHTHHGRGTNTDYHIYSVEWNSSVIRWFVDGNQYFEVNIQRGATGTNAFHNKVFVILNMAIGGNWPGFNVADEAFPANMYVDYVRVYQDANTPSPVDVDVTDLSGYYFLQNRHSELYLDVSFSSNKDGAFLQQWPYNGNANQQFDFVHLGNNIYKITNKNSGKSLDVYNVGTENGVRIQQMPYRGSYNQQFIVQDVGDGYYKIFARNSRKLVEVADFNKDPGGKIQQWSDDGQISGQWKLIRNKVNSKVIQAESYFASLGVQLEDTSDVGGGKNVKCDTEGAWMAYKDINFPSSGSYQVEYRVASERAGGKLSLDLNAGSIVLGMLNVPSTGGWQKWTTISHTVKVDSGTYNLGIYVQRPRWNINWIKITEAPGQSKPIQRSDTDSKVIQAESYFASSKVQLEDTSDVGGGKNVKCDNEGAWMAYKDINFPSSGSYQIEYRVASERAGGKLSLDLNAGSIVLGMLDVPSTGGWQKWTTISHTVNVSSGTYNLGIYVQRAAWNINWIKITKV
With B3, the glucan-dependent protease activity of the coexpressed product: blank difference in absorbance (405 nm / 492 nm) with vs without LNT; grade A >0.1, B <=0.1 and >0.01, C <=0.01 and >0, D =0 (absorbance difference) is less than 0.01 in experiment [1]; 0.1 in experiment [2]; 0 in experiment [3]; 0 in experiment [4]; 0 in experiment [5]; less than 0.1 in experiment [6].

B4: Tachypleus Factor G α-subunit (protein)
chain: SHEPKWQLVWSDEFTNGISSDWEFEMGNGLNGWGNNELQYYRRENAQVEGGKLVITAKREDYDGFKYTSARLKTQFDKSWKYGKIEAKMAIPSFRGVWVMFWMSGDNTNYVRWPSSGEIDFIEHRNTNNEKVRGTIHWSTPDGAHAHHNRESNTNGIDYHIYSVEWNSSIVKWFVNGNQYFEVKIQGGVNGKSAFRNKVFVILNMAIGGNWPGFDVADEAFPAKMYIDYVRVYQDASTSSPVGDTSLDGYYFVQNRHSELYLDVTDASNEDGAFLQQWSYSGNENQQFDFEHLENNVYKITNKKSGKSLDVYNFGTENGVRIQQWSYGGARNQQFTVQSVGDGYYKIIPRGSGKLVEVADFSKDAGGKIQQWSDNNQLSGQWKLIKSKSYSKLIQAESYFDSSKVQLEDTSDVGGGKNVKCDNEGAWMAYKDIDFPSSGNYRIEYRVASERAGGKLSLDLNAGSIVLGMLDVPSTGGWQKWTTISHTVNVDSGTYNLGIYVQRASWNINWIKITKIPEQSNLNQGRRNSKLIQAESYFSYSEVQLEDTLDVGGGKNVKCDKEGAWMAYKDIDFPSSGSYRVEYRVASERAGGKLSLDLNAGSIVLGMLDIPSTGGLQKWTTISHIVNVDLGTYNLGIYVQKASWNINWIRITKV
With B4, the glucan-dependent protease activity of the coexpressed product: blank difference in absorbance (405 nm / 492 nm) with vs without LNT; grade D = blank difference equal to 0 (legend given for Table 13) (absorbance difference) in experiment [7] was 0.
